Measured values taken from US5792457A, “Antibody recognizing endothelial cell ligand for leukocyte CR3” (priority 1995, dated 1998).

Assay: Overlay on thin-layer chromatography plates containing glycolipids
Format: binding
Excerpt: 2) The DNA sequence from nucleotide position 3674 to 4088 (bounded by XhoI sites) which corresponds to the CRD was amplified by the polymerase chain reaction and ligated into one of the pET expression vectors (Rosenberg et al. (1987), Gene 56, 125-135). Expression of the polypeptide in E. coli utilized the T7 RNA polymerase promoter system (Tabor, S. & Richardson, C.C. (1985), Proc. Natl. Acad. Sci. U.S.A. 82). [^35 S] […] Cell lysates containing the expressed protein were overlaid on thin-layer chromatography plates containing glycolipid standards and the binding pattern was compared to that of FHA.

B1: CRD protein: expressed polypeptide of FHA carbohydrate recognition domain, residues 1141-1279, 18kD (protein, UniProt P12255 1141-1279, looked up, fragment)
chain: LEHSTIESKISQSVLAAKGDKGKPAVSVKVAKKLFLNGTLRAVNDNNETMSGRQIDVVDGRPQITDAVTGEARKDESVVSDAALVADGGPIVVEAGELVSHAGGIGNGRNKENGASVTVRTTGNLVNKGYISAGKQGVL
binding to lactosylceramides (in words): bound to these carbohydrates in a pattern similar to FHA, especially in the ability to bind to lactosylceramides
